Test results published in PMC8675452.

Biological target: biotinylated MPER peptide (MPERbiot) (HIV (strain not stated))
Test: BLI

Substance: trispecific anti-HIV antibody (SAR441236)
- koff: 0.00126 s⁻¹
